Test results published in US20080267971A1 (published 2008).
Where a chain is given by its changes, count along the chain named.

B1: mAb 5.13.1 (antibody, V domains shown)
VH: EVQLVESGGGLVQPGGSLRLSCAASGFTFSSYWMSWVRQAPGKGLEWVANIKQDGSEKYYVDSVKGRFTISRDNAKNSLYLQMNSLRAEDTAVYYCARDPGIAVAGPFDYWGQGTLVTVSS
VL: EIVMTQSPATLSVSPGERATLSCRASQSVSSNLAWYQQKPGQAPRLLIYGASTRATGIPARFSGSGSGTEFTLTISSLQSEDFAVYYCQQYNHWWTFGQGTKVEIKR
notes: Human hybridoma IgG (XenoMouse); also called x5.13
B2: mAb 5.108.1 (antibody, V domains shown)
VH: QVQLVESGGGVVQPGRSLRLSCAASGFTFSSYGMHWVRQAPGKGLEWVAVIWYDGSNKYYADSVKGRFTISRDNSKNTLYLQMNSLRAEDTAMYYCARELALWGQGTLVTVSS
VL: B1 VL with N32Y, S52F, S63R, T69P, N92S
notes: Human hybridoma IgG (XenoMouse); also called x5.108
B3: mAb 5.40.2 (antibody, V domains shown)
VH: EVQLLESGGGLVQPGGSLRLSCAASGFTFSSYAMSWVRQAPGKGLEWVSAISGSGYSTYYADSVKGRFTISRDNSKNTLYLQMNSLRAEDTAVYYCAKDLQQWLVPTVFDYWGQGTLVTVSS
VL: B1 VL with A34V, G50D, A51S, A60V
notes: Human hybridoma IgG (XenoMouse); also called x5.40
B4: mAb 5.39.1 (antibody, V domains shown)
VH: QVQLVQSGAEVTKPGASVKVSCKASGYTFTAYHMYWVRQAPGQGLEWMGWINPNSGGTNYAQKFQGRVTMTRDTSISTAYMELSRLRSDDSPVYYCARDQGIAAAGPFDYWGQGTLVTVSS
VL: B1 VL with E17D, L33F, A51S, N92H, H93Y, I105F
notes: Human hybridoma IgG (XenoMouse); also called x5.39
B5: mAb 3.3.2 (antibody, V domains shown)
VH: B1 VH with A24V, P100Q
VL: B1 VL with S28T, N32D, T53I, Y87S, N92Y, H93N
notes: Human hybridoma IgG (XenoMouse); also called 3.3.1; x3.3
B6: mAb 5.62.1 (antibody, V domains shown)
VH: B1 VH
VL: B1 VL with S52F, E104G
notes: Human hybridoma IgG (XenoMouse); also called x5.62
B7: mAb 5.35.1 (antibody, V domains shown)
VH: EVQLVESGGGVVRPGGSLRLSCTTSGFTFDDYGMSWVRQAPGKGLEWVSGINWNGGSTVYADSVKGRFTISRDSAKNSLYLQMNSLRAEDTALYHCARNKQWLWYFDLWGRGTLVTVSS
VL: EIVMTQSPATLSVSPGERATLSCRASQSVSSNLAWYQQKPGQAPRLLIYGASTRATGIPARFSGSGSGTEFTLTISSLQSEDFAVYYCEQYNNWPLTFGGGTKVEIKR
notes: Human hybridoma IgG (XenoMouse); also called x5.35

Experiments:
[1] = target: T1, human Angiopoietin-2 (human, UniProt O15123 19-496); assay: inhibition of rhAng-2 binding to its receptor
T1 construct: Mostly bought recombinant protein (R&D Systems 623-AM/CF, 623-AN; biotinylated BT623) or supernatant of transfected 293F cells; also called Ang-2; rhAng-2
T1 sequence: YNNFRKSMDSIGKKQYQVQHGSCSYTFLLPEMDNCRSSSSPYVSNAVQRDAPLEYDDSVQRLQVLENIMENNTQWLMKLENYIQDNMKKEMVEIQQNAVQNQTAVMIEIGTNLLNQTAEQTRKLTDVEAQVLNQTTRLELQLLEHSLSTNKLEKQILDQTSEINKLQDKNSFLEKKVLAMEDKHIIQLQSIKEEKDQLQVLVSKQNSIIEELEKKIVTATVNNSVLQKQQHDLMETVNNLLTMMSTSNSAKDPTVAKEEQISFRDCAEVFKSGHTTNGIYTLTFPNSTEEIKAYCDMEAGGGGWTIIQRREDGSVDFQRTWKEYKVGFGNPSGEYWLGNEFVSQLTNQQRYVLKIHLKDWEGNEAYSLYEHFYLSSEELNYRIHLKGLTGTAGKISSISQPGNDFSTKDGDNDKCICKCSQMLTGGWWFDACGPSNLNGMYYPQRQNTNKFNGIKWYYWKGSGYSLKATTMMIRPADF

[2] = target: T1, human Angiopoietin-2; assay: Biacore, mAb captured
Protocol: (§1) The label-free surface plasmon resonance (SPR), or Biacore, was utilized to measure the antibody affinity to the antigen. For this purpose, a high-density goat anti-human antibody surface over a CM5 Biacore chip was prepared using routine amine coupling. All the purified mAbs were diluted to approximately 8 μg/ml in HBS-P running buffer containing 100 μg/ml BSA and 10 mg/mL carboxymethyldextran. Each mAb was captured on a separate surface using a 42-second contact time, and a 5-minute wash for stabilization of the mAb baseline.
(§2) Data were fit globally to a 1:1 interaction model to determine the binding kinetics.

[3] = target: T1, human Angiopoietin-2; assay: Biacore; kd held constant (*)
Protocol: as §1, §2

[4] = target: T2, human Ang-2 H375Q (human, UniProt O15123 19-496); assay: ELISA
T2 sequence: T1 sequence with H356Q

[5] = target: T3, Mouse/Human chimeric Ang-2 with the human StuI-TfiI fragment (mouse/human chimera, UniProt O35608 19-496); assay: ELISA
T3 construct: also called Stu-Tfil 310-400
T3 chain: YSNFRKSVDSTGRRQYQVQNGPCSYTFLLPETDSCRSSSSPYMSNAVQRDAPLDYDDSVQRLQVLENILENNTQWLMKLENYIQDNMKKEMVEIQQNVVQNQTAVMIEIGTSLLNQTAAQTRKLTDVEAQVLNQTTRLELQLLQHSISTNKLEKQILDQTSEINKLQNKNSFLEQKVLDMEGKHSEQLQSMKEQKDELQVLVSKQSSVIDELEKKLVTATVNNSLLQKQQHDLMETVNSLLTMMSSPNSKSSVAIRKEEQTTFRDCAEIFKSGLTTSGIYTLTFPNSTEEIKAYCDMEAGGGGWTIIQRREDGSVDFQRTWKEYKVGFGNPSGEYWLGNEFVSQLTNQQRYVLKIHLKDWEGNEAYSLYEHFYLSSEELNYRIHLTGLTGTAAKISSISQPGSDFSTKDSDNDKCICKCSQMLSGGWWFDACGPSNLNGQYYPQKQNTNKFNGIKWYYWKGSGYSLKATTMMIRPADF

[6] = target: T4, mouse Angiopoietin-2 (mouse, UniProt O35608 19-496); assay: ELISA, recombinant mouse Ang-2
T4 construct: Used as conditioned medium of transfectants; also called mAng-2; mouse Ang-2
T4 sequence: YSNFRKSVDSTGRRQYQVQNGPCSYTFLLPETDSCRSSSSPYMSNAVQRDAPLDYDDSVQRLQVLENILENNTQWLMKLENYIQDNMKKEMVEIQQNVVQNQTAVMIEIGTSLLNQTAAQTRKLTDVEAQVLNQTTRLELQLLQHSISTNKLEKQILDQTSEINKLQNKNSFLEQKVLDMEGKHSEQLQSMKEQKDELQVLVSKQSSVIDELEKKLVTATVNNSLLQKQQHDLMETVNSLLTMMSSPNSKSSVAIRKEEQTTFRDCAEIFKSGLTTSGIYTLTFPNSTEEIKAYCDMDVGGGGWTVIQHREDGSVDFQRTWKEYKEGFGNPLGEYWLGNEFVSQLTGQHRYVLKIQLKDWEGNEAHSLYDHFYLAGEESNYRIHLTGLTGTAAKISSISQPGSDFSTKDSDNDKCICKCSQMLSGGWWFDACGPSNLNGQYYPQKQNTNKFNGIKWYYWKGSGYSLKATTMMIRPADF

Binder	OD650 in inhibition assay [1] [OD650]	Kd [2] [nM]	kon [2] [M⁻¹ s⁻¹]	koff [3] [s⁻¹]	% of binding to human Ang-2 [4] [%]	% of binding to human Ang-2 [5] [%]	binding result [6]
B1	0.0744	≤ 0.047	210000	≤ 1e-05	100	27	no binding
B2	0.0688	≤ 0.031	320000	≤ 1e-05	100	36	no binding
B3	0.0691	≤ 0.129	78000	≤ 1e-05	100	65	no binding
B4	0.0519	≤ 0.043	230000	≤ 1e-05	100	25	no binding
B5	0.0558	≤ 0.033	300000	≤ 1e-05	100	15	no binding
B6	0.065	≤ 0.065	150000	≤ 1e-05	100	30	no binding
B7	0.0663	≤ 0.029	340000	≤ 1e-05	100	100	no binding
